In the assay the target is RecU protein from Mycoplasma genitalium (RecUMge) (Mycoplasma genitalium) (UniProt Q49422).

Results on one substance are retold here after publication PMC3364216.

On to “RuvA homologue from Mycoplasma genitalium (RuvAMge), H10-tagged (from UniProt Q49424 1-205) (natural protein)”, for which the HJ resolution activity of RecUMge (0.2 uM) on HJ 1.1 preincubated with RecUMge before RuvAMge (0 to 4 uM) was added; percent inhibition (≥20% only at ≥250 nM) is greater than 80% and the HJ resolution activity of RecUMge (0.2 uM) on HJ 1.1 preincubated with RuvAMge (0 to 4 uM) before RecUMge was added; percent reduction of activity (about 20% at 60 nM, highest at 1 uM or more) is greater than 80%.
